# Test results: PMC8706911, “Insights into the Neutralization and DNA Binding of Toxin–Antitoxin System ParESO-CopASO by Structure-Function Studies” (Microorganisms, 2021)
# B1: ParESO (SO_1444), toxin of the ParESO-CopASO type II toxin-antitoxin system of prophage CP4So (natural protein, Shewanella oneidensis)
# chain: MPQIVFTATALRDLERLREFLRSKNPPAAQRAASAIINTIRKLESYPDIGRPIDDNDFSFRELLIDFGDTGYLAMYQYDGGERLTVLCIRHQKEAGY
# modifications: selenomethionine-substituted in the crystal
# notes: also called ParESO (I); ParESO (II)
# B2: CopASO (SO_1445), antitoxin of the ParESO-CopASO type II toxin-antitoxin system of prophage CP4So (natural protein, Shewanella oneidensis, UniProt Q8EGZ2 1-102, looked up)
# chain: MSTIKPVSVKLDADIKARVEHLAETRKRSSHWMMREAIREYVEREEKREALQQEALRAWEEHQTSGLHVTGDEVVSWLESWGSENEQAALHATNSLHCHCIT
# modifications: selenomethionine-substituted in the crystal
# notes: CopASO (SO_1445), antitoxin of prophage CP4So, Shewanella oneidensis; called full-length in the complex; 93 residues modelled in CopASO (I), 77 in CopASO (II); also called CopASO (I); CopASO (II)
# What was measured:
# [1] = test system: CopASO;ParESO (in purified ParESO-CopASO complex) (Shewanella oneidensis (prophage CP4So);Shewanella oneidensis (prophage CP4So)); experiment: ITC; conditions: ITC: 20 mM Tris pH 8.0, 100 mM NaCl, 5% (v/v) glycerol, 20 °C; 100-400 uM DNA injected into 10-100 uM protein; one-site model
# [2] = test system: CopASO (Shewanella oneidensis (prophage CP4So)); experiment: ITC; conditions: ITC: 20 mM Tris pH 8.0, 100 mM NaCl, 5% (v/v) glycerol, 20 °C; 100-400 uM DNA injected into 10-100 uM protein; one-site model
# [3] = target: B2; experiment: crystal structure; Se-Met ParESO-CopASO complex, crystallised in 20% PEG3350, 0.2 M tri-sodium citrate at 20 °C; SAD, 3.80 Å; conditions: both partners purified
# [4] = target: the molecule itself; experiment: as above
molecule,measurement,setting,value
TAAGGTATTACCTAGTAGTACTAAG (double strand) [25 bp copASO-parESO promoter duplex],Kd,[1],660 nM
same,Kd,[2],16 nM
B1,binding result,[3],binds
B2,stoichiometry N,[4],2
